Data from publication doi:10.1101/2024.10.22.619416 (bioRxiv, 2024).

B1: alpaca nanobody 3-2A2-4 (VHH)
VHH: QVQLQESGGGLVQPGESLRLSCAASGSISTLNVMGWYRQAPGKQRELVAQITLDGSPEYADSVKGRFTITKDGAQSTLYLQMNNLKPEDTAVYFCKLENGGFFYYWGQGTQVTVST
B2: humanized antibody hAb1.1 (antibody, V domains shown)
VH: QVQLQESGPGLVKPSETLSLTCSVSGFSLINYAISWIRQPPGKGLEWIGVIWTGGGTNYNSALKSRLTISRDTSKNQVFLKMNSVTAADTAVYYCARKDYYGRYYGMDYWGQGTLVTVSS
VL: QAVVTQEPSLTVSPGGTVTLTCRSSTGAVTTSNYANWLQQKPGQAPRGLIGGTNNRAPGVPPRFSGSILGDKAALTLSGAQSEDEADYYCALWYNNHWVFGGGTKLTVL
B3: humanized antibody hAb1.2 (antibody, V domains shown)
VH: QVQLQESGPGLVKPSETLSLTCTVSGFSLINYAISWIRQAPGKGLEWIGVIWTGGGTNYNSALKSRLTISRDTSKSQVFLKLNSVTAADTAVYYCARKDYYGRYYGMDYWGQGTLVTVSS
VL: QAVVTQEPSLTVSPGGTVTLTCRSSTGAVTTSNYANWFQQKPGQAPRGLIGGTNNRAPWVPDRFSGSLLGGKAALTLSGAQPEDEADYYCALWYNNHWVFGGGTKLTVL
B4: humanized antibody hAb1.5 (antibody, V domains shown)
VH: QVQLQESGPGLVKPSETLSLTCTVSGFSLINYAISWIRQAPGKGLEWIGVIWTGGGTNYNSALKSRLTISVDTSKSQFSLKLSSVTAADTAVYYCARKDYYGRYYGMDYWGQGTLVTVSS
VL: QAVVTQEPSLTVSPGGTVTLTCRSSTGAVTTSNYANWFQQRPGQPPRGLIGGTNNRAPGVPARFSGSILGGKAALTLSGAQPEDEADYYCALWYNNHWVFGGGTKLTVL
B5: humanized antibody hAb1.4 (antibody, V domains shown)
VH: QVQLQESGPGLVKPSETLSLTCTVSGFSLINYAISWVRQAPGKGLEWIGVIWTGGGTNYNSALKSRLTISVDTSKSQVSLRLSSVTAADTAVYYCARKDYYGRYYGMDYWGQGTLVTVSS
VL: QAVVTQEPSLTVSPGGTVTLTCRSSTGAVTTSNYANWFQQKPGQAPRGLIGGTNNRAPGVPARFSGSILGGKAALTLSGAQPEDEADYYCALWYNNHWVFGGGTKLTVL
B6: humanized nanobody hNb1.1 (VHH)
VHH: EVQLVESGGGLVQPGGSLRLSCAASGSISTLNVMGWFRQAPGKGREWVAAITLDGSPYYADSVKGRFTISRDNAKNTLYLQMNSLRPEDTAVYYCKLENGGFFYYWGQGTQVTVSS
B7: humanized nanobody hNb1.2 (VHH)
VHH: EVQLVESGGGLVQPGGSLRLSCAASGSISTLNVMSWVRQAPGKGLEWVSSITLDGSPYYADSVKGRFTISRDNSKNTLYLQMNSLRVEDTAVYYCKLENGGFFYYWGQGTLVTVSS
B8: humanized nanobody hNb1.5 (VHH)
VHH: EVQLVESGGGLVQPGGSLRLSCAASGSISTLNVMGWYRQAPGKQRELVAQITLDGSPEYADSVKGRFTISRDNSKNTLYLQMNSLKPEDTAVYYCKLENGGFFYYWGQGTQVTVSS
B9: humanized nanobody hNb1.4 (VHH)
VHH: EVQLVESGGGLVQPGGSLRLSCAASGSISTLNVMGWYRQAPGKQRELVAQITLDGSPEYADSVKGRFTISRDNAKNTLYLQMNSLRAEDTAVYYCKLENGGFFYYWGQGTQVTVSS
B10: humanized nanobody hNb1.3 (VHH)
VHH: EVQLVESGGGLVQPGGSLRLSCAASGSISTLNVMSWVRQAPGKGLEWVSSITLDGSPNYADSVKGRFTISRDNSKNTLYLQMNSLRVEDTAVYYCKLENGGFFYYWGQGTLVTVSS

These binders were tested against SARS-CoV-2 (2019-nCoV) Spike RBD protein (SARS-CoV-2 (2019-nCoV), ancestral …, UniProt P0DTC2) (assay: BLI).
B1 gave a Kd of 5.47 nM. In the case of B2, the Kd is reported as 0.27 nM. B3 showed a Kd of 0.15 nM. Work on B4 yielded a Kd of 6.37 nM. For B5, the Kd was 1.03 nM. Work on B6 yielded a Kd of 2.52 nM. For B7, the Kd was 45.7 nM. B8 showed a Kd of 7.4 nM. B9 was tested, and the Kd was 5.83 nM. B10 was tested, and the Kd was 58.2 nM.
